Test results taken from US20050226874A1 (CENTRE NATIONAL DE LA RECHERCHE SCIENTIFIQUE CNRS A …, published 2005).
Positions count from the first letter of the chain named. Numbers in names are those of the source.

B1: mutant Fab Y102-H of the 13B8.2 antibody (Fab, V domains shown)
VH: QVQLKQSGPGLVQPSQSLSITCTVSGFSLTTFGVHWVRQSPGKGLEWLGVIWRSGITDYNVPFMSRLSITKDNSKSQVFFKLNSLQPDDTAIYYCAKNDPGTGFAAWGQGTLVTVSA
VL: DIQMTQSPASLSASVGETVTFTCRASENIYSYLAWYQQKQGKSPQLLVHDAKTLAEGVPSRFSGGGSGTQFSLKINTLQPEDFGTYYCQHHYGNPPTFGGGTKLEIK
notes: Chimeric Fab with human CH1-γ1 and Cκ; baculovirus/Sf9
B2: wild recombinant chimeric Fab fragment of the 13B8.2 anti-CD4 antibody (Fab, V domains shown)
VH: B1 VH with A106Y
VL: B1 VL
notes: Chimeric Fab: murine V domains fused to human CH1-γ1 (Fdγ1) and human Cκ, expressed in baculovirus/Sf9 cells, purified on protein G; also called Fabwild 13B8.2; wild Fab
B3: mutant Fab F32-H of the 13B8.2 antibody (Fab, V domains shown)
VH: B1 VH with F32A, A106Y
VL: B1 VL
notes: Chimeric Fab with human CH1-γ1 and Cκ; baculovirus/Sf9; also called F32 mutant Fab
B4: control mutant Fab V61-H of the 13B8.2 antibody (Fab, V domains shown)
VH: B1 VH with V61A, A106Y
VL: B1 VL
notes: Chimeric Fab with human CH1-γ1 and Cκ; baculovirus/Sf9; Control position, not a Spot contributor residue; also called V61-Hcontrol
B5: mutant Fab Y36-L of the 13B8.2 antibody (Fab, V domains shown)
VH: B1 VH with A106Y
VL: B1 VL with Y36A
notes: as for B1
B6: mutant Fab R38-H of the 13B8.2 antibody (Fab, V domains shown)
VH: B1 VH with R38A, A106Y
VL: B1 VL
notes: as for B1
B7: mutant Fab C92-H of the 13B8.2 antibody (Fab, V domains shown)
VH: B1 VH with C95A, A106Y
VL: B1 VL
notes: as for B1
B8: alanine analogue of peptide 49GVIWRS54 with Val50 replaced by Ala (peptide)
peptide: GAIWRS
notes: Spot peptide on cellulose membrane; also called GAIWRS
B9: alanine analogue of peptide 49GVIWRS54 with Arg53 replaced by Ala (peptide)
peptide: GVIWAS
notes: Spot peptide on cellulose membrane; also called GVIWAS
B10: alanine analogue of peptide 49GVIWRS54 with Ser54 replaced by Ala (peptide)
peptide: GVIWRA
notes: Spot peptide on cellulose membrane; also called GVIWRA
B11: mutant Fab R53-H of the 13B8.2 antibody (Fab, V domains shown)
VH: B1 VH with R53A, A106Y
VL: B1 VL
notes: as for B1
B12: mutant Fab W103-H of the 13B8.2 antibody (Fab, V domains shown)
VH: B1 VH with A106Y, W107A
VL: B1 VL
notes: as for B1
B13: mutant Fab H35-H of the 13B8.2 antibody (Fab, V domains shown)
VH: B1 VH with H35A, A106Y
VL: B1 VL
notes: as for B1
B14: mutant Fab W36-H of the 13B8.2 antibody (Fab, V domains shown)
VH: B1 VH with W36A, A106Y
VL: B1 VL
notes: as for B1
B15: mutant Fab Y32-L of the 13B8.2 antibody (Fab, V domains shown)
VH: B1 VH with A106Y
VL: B1 VL with Y32A
notes: as for B1
B16: mutant Fab F100K-H of the 13B8.2 antibody (Fab, V domains shown)
VH: B1 VH with F104A, A106Y
VL: B1 VL
notes: as for B1
B17: mutant Fab W52-H of the 13B8.2 antibody (Fab, V domains shown)
VH: B1 VH with W52A, A106Y
VL: B1 VL
notes: as for B1
B18: hexapeptide 52WRSGIT57 of the CDR-H2 region of 13B8.2 (peptide)
peptide: WRSGIT
notes: Spot peptide on cellulose membrane; also called peptide 2
B19: hexapeptide 49GVIWRS54 of the CDR-H2 region of 13B8.2 (peptide)
peptide: GVIWRS
notes: also called peptide 1; control peptide 1
B20: alanine analogue of peptide 49GVIWRS54 with Gly49 replaced by Ala (peptide)
peptide: AVIWRS
notes: Spot peptide on cellulose membrane; also called AVIWRS
B21: alanine analogue of peptide 49GVIWRS54 with Ile51 replaced by Ala (peptide)
peptide: GVAWRS
notes: Spot peptide on cellulose membrane; also called GVAWRS

target: T1, soluble human recombinant CD4 expressed in baculovirus (human, UniProt P01730 26-396, limits assumed); assay: ELISA on coated baculovirus-expressed soluble CD4, anti-human kappa-peroxidase, A490 [panel Mutants CDR-H 13B8.2]
T1 construct: Coated on plates for the ELISA and covalently immobilised on the sensor for BIAcore; Only called soluble; also called soluble CD4; CD4 expressed in the baculovirus
Method: A 1:500 dilution of the CD4 fraction expressed by the baculovirus in 0.1 M carbonate/bicarbonate buffer, pH 9.6, was incubated overnight at 4° C. on 96-well enzymatic immunoanalysis plates (Nunc, Paisley, UK). Four washings with the phosphate saline buffer (PBS) 160 mM pH 7.2, containing 0.1% Tween 20 (PBD-T), were performed before and after the saturation of the microplates, with powdered skim milk at a concentration of 1% in the PBS-T for one hour at 37° C.

B1: binds.

target: T1, soluble human recombinant CD4 expressed …; assay: SPR (BIAcore), CD4 immobilised, Exp. 3
Method: (§1) The kinetic parameters of the binding of CD4 to the paratope of the Fab fragments of the 13B8.2 antibody were determined by analysis of the surface plasmon resonance by means of a BIAcore analyzer (BIAcore AB, Uppsala, Sweden).

Going from B2 to B3, the Kd falls from 25.6 nM to 16.9 nM (1.5-fold). The second binds more tightly here.

Going from B2 to B3, the koff rises from 6.4e-05 s⁻¹ to 0.00025 s⁻¹ (3.9-fold).

Compared with B2, B3 is 5.9-fold higher in kon: 2500 M⁻¹ s⁻¹ for the first, 14800 M⁻¹ s⁻¹ for the second.

target: T1, soluble human recombinant CD4 expressed …; assay: SPR (BIAcore), CD4 immobilised, Exp. 2
Method: as §1

First: B2
Second: B4
The Kd of the first is 12-fold higher: 33.5 nM for the first, 2.9 nM for the second.

Work on B3 yielded a Kd of 17 nM.

First: B2
Second: B4
The koff of the first is 2-fold lower: 0.000161 s⁻¹ for the first, 0.000324 s⁻¹ for the second.

B3 was tested, and the koff was 0.000246 s⁻¹.

Going from B2 to B4, the kon rises from 4800 M⁻¹ s⁻¹ to 112000 M⁻¹ s⁻¹ (23-fold).

Binder B3 has a kon of 14400 M⁻¹ s⁻¹.

target: T2, membranous CD4 (wild human CD4 expressed on cells) (human, UniProt P01730 26-458); assay: flow cytometry, T A2.01/CD4 cells, Fab at 1 µg/ml, fluorescein-labeled anti-kappa chain antibody
T2 construct: whole, on cells; also called T A2.01/CD4 cells; T AN2.01/CD4 cells
Method: (§2) The binding of the wild or mutant Fabs to the membranous CD4 was evaluated by flow cytometry.
(§3) In order to determine the binding of the fragments to the membranous CD4, T AN2.01 CD4+ cells were analyzed by indirect immunofluorescent labeling and flow cytometry (FIG. 4).

Going from B2 to B5, the “percent of cells under the marker bar of the histogram” value (from here on “percent of cells”) falls from 44.7% to 44.6%.

Going from B6 to B4, the “percent of cells” value rises from 48% to 62.9%.

In the case of B7, the “percent of cells” value is reported as 76.5%.

target: T3, biotinylated human recombinant CD4 (Repligen Inc.) (human, UniProt P01730 26-394, limits assumed, biotinylated (sites not given)); assay: Spot peptides on cellulose membrane probed with biotinylated CD4
T3 construct: Probe of the Spot membranes, used at 1 µg/ml; also called biotinylated CD4; CD4 probe
Method: (§4) The antigenic reactivity of the peptides bound to the cellulose membrane was tested with biotinylated CD4 (1 μg/ml) under conditions that led to the production of a blue precipitate for the reactive spots as described in [Bès, 2001b].

WASGIT (also called WASGIT) [alanine analogue of peptide 52WRSGIT57 with Arg53 replaced by Ala (dotted bar R53)]: no binding.
B8: binds.

target: T3, biotinylated human recombinant CD4 …; assay: Spot peptide on cellulose probed with biotinylated CD4
Method: as §4

B9: no binding.
B10: binds.

target: T2, membranous CD4 (wild human CD4 …); assay: flow cytometry, T A2.01/CD4 cells, Fab at 10 µg/ml, fluorescein-labeled anti-kappa chain antibody
Method: as §2, §3

Going from B2 to B11, the “percent of cells” value falls from 84.8% to 43.2%.

First: B12
Second: B3
The “percent of cells” value of the first is lower: 6.76% for the first, 82.4% for the second.

First: B13
Second: B14
The “percent of cells” value of the first is lower: 33.6% for the first, 65.5% for the second.

target: T1, soluble human recombinant CD4 expressed …; assay: SPR (BIAcore), CD4 immobilised, Exp. 1
Method: as §1

B2 and B5 are within 1.5-fold of each other in Kd: 28.4 nM for the first, 25.4 nM for the second.

First: B4
Second: B3
The Kd of the first is 6.8-fold lower: 2 nM for the first, 13.5 nM for the second.

First: B2
Second: B5
The koff of the first is 6-fold lower: 0.000108 s⁻¹ for the first, 0.000651 s⁻¹ for the second.

B4 and B3 are within 1.5-fold of each other in koff: 0.000172 s⁻¹ for the first, 0.000248 s⁻¹ for the second.

Going from B2 to B5, the kon rises from 3800 M⁻¹ s⁻¹ to 25600 M⁻¹ s⁻¹ (6.7-fold).

Compared with B4, B3 is 4.7-fold lower in kon: 86800 M⁻¹ s⁻¹ for the first, 18300 M⁻¹ s⁻¹ for the second.

target: T1, soluble human recombinant CD4 expressed …; assay: SPR (BIAcore), CD4 immobilised
Method: as §1

First: B6
Second: B11
The Kd of the first is 34-fold lower: 859 nM for the first, 29200 nM for the second. The first binds more tightly here.

Compared with B12, B15 is 2.2-fold higher in Kd: 4030 nM for the first, 8930 nM for the second. The first binds more tightly here.

Compared with B16, B13 is 7.4-fold higher in Kd: 845 nM for the first, 6280 nM for the second. The first binds more tightly here.

First: B17
Second: B14
The Kd of the first is 240-fold higher: 3620 nM for the first, 15.4 nM for the second. The second binds more tightly here.

B7 showed a Kd of 3.7 nM.

Compared with B6, B11 is 75-fold higher in koff: 0.00014 s⁻¹ for the first, 0.0105 s⁻¹ for the second.

Compared with B12, B15 is 1.9-fold lower in koff: 0.00112 s⁻¹ for the first, 0.000585 s⁻¹ for the second.

First: B16
Second: B13
The koff of the first is 4-fold lower: 0.000475 s⁻¹ for the first, 0.00189 s⁻¹ for the second.

First: B17
Second: B14
The koff of the first is 3.2-fold higher: 0.000859 s⁻¹ for the first, 0.000271 s⁻¹ for the second.

B7 showed a koff of 0.000358 s⁻¹.

First: B6
Second: B11
The kon of the first is 2.2-fold lower: 163 M⁻¹ s⁻¹ for the first, 359 M⁻¹ s⁻¹ for the second.

First: B12
Second: B16
The kon of the first is 2-fold lower: 278 M⁻¹ s⁻¹ for the first, 562 M⁻¹ s⁻¹ for the second.

B13 and B17 are within 1.5-fold of each other in kon: 301 M⁻¹ s⁻¹ for the first, 237 M⁻¹ s⁻¹ for the second.

First: B14
Second: B7
The kon of the first is 5.5-fold lower: 17600 M⁻¹ s⁻¹ for the first, 96100 M⁻¹ s⁻¹ for the second.

target: T3, biotinylated human recombinant CD4 …; assay: quantified Spot reactivity, membrane probed with biotinylated CD4
Method: as §4

B18: binds.
WRAGIT (also called WRAGIT) [alanine analogue of peptide 52WRSGIT57 with Ser54 replaced by Ala (dotted bar S54)]: binds.
ARSGIT (also called ARSGIT) [alanine analogue of peptide 52WRSGIT57 with Trp52 replaced by Ala (dotted bar W52)]: binds.
WRSAIT (also called WRSAIT) [alanine analogue of peptide 52WRSGIT57 with Gly55 replaced by Ala (dotted bar G55)]: binds.
WRSGAT (also called WRSGAT) [alanine analogue of peptide 52WRSGIT57 with Ile56 replaced by Ala (dotted bar I56)]: binds.
WRSGIA (also called WRSGIA) [alanine analogue of peptide 52WRSGIT57 with Thr57 replaced by Ala (dotted bar T57)]: binds.
B19: binds.
B20: binds.
B21: binds.

target: T1, soluble human recombinant CD4 expressed …; assay: SPR (BIAcore), CD4 immobilised, Exp. 2; Exp. 2
Method: as §1

For B5, the Kd was 11.4 nM.

With B5 the koff was 0.00057 s⁻¹.

Work on B5 yielded a kon of 50000 M⁻¹ s⁻¹.
